Measurements reported in IntAct's records for PubMed 22265413.

B1: Mixed lineage kinase domain-like protein (Homo sapiens), Q8NB16 (parent)
chain: MENLKHIITLGQVIHKRCEEMKYCKKQCRRLGHRVLGLIKPLEMLQDQGKRSVPSEKLTTAMNRFKAALEEANGEIEKFSNRSNICRFLTASQDKILFKDVNRKLSDVWKELSLLLQVEQRMPVSPISQGASWAQEDQQDADEDRRAFQMLRRDNEKIEASLRRLEINMKEIKETLRQYLPPKCMQEIPQEQIKEIKKEQLSGSPWILLRENEVSTLYKGEYHRAPVAIKVFKKLQAGSIAIVRQTFNKEIKTMKKFESPNILRIFGICIDETVTPPQFSIVMEYCELGTLRELLDREKDLTLGKRMVLVLGAARGLYRLHHSEAPELHGKIRSSNFLVTQGYQVKLAGFELRKTQTSMSLGTTREKTDRVKSTAYLSPQELEDVFYQYDVKSEIYSFGIVLWEIATGDIPFQGCNSEKIRKLVAVKRQQEPLGEDCPSELREIIDECRAHDPSVRPSVDEILKKLSTFSK
B2: Receptor-interacting serine/threonine-protein kinase 3 (Homo sapiens), Q9Y572 (parent)
chain: MSCVKLWPSGAPAPLVSIEELENQELVGKGGFGTVFRAQHRKWGYDVAVKIVNSKAISREVKAMASLDNEFVLRLEGVIEKVNWDQDPKPALVTKFMENGSLSGLLQSQCPRPWPLLCRLLKEVVLGMFYLHDQNPVLLHRDLKPSNVLLDPELHVKLADFGLSTFQGGSQSGTGSGEPGGTLGYLAPELFVNVNRKASTASDVYSFGILMWAVLAGREVELPTEPSLVYEAVCNRQNRPSLAELPQAGPETPGLEGLKELMQLCWSSEPKDRPSFQECLPKTDEVFQMVENNMNAAVSTVKDFLSQLRSSNRRFSIPESGQGGTEMDGFRRTIENQHSRNDVMVSEWLNKLNLEEPPSSVPKKCPSLTKRSRAQEEQVPQAWTAGTSSDSMAQPPQTPETSTFRNQMPSPTSTGTPSPGPRGNQGAERQGMNWSCRTPEPNPVTGRPLVNIYNCSGVQVGDNNYLTMQQTTALPTWGLAPSGKGRGLQHPPPVGSQEGPKDPEAWSRPQGWYNHSGK
partner: B1 chain

Variants of: B1
Settings: with ripk3_human RIPK3, Q9Y572

Row | Variant | effect of a mutation on the interaction
1 | T357A;S358A | disrupting interaction
2 | T357E;S358D | decreasing interaction

Variants of: B2
Settings: with mlkl_human MLKL

Row | Variant | effect of a mutation on the interaction
3 | S227A | disrupting interaction
4 | D142N | disrupting interaction

Variants of: B2
Settings: with mlkl_human MLKL
Remark: another data set of the same source

Row | Variant | effect of a mutation on the interaction
5 | K50A | decreasing interaction
